B1: Hairpin Ribozyme (parent)
chain: GUCCUCUUUCACGUGCGCGUGAAAGAGAGAAGUGAACCAGAGAAACACACGUUGUGGUAUAUUACCUGGUA

In this series the parent is B1. Briefly: self-cleavage, relative activity (ratio to wild type); higher = more cleavage; co-transcriptional.
Take G1U U7C: the self-cleavage is 0.0995.
With U2A A39U the figure was 0.127.
In the case of U2C A43G it was 0.167; in that of U2A A22C, 0.341.
With U2A A22G the figure was 0.175; with U2C C4A, 0.1; with U2C C4U, 0.0249.
U2C C4G: the self-cleavage is 0.0947.
U2A C66G: the self-cleavage is 0.161.
In the case of U2A C66U it was 0.127.
Consider U2C A47C, for which the self-cleavage turned out to be 0.0817.
In the case of G1U G69U it was 0.101; in that of G1U G69C, 0.0943.
For the variant U2A A47U, the self-cleavage amounted to 0.0626.
In the case of U2C A31U it was 0.25; in that of U2C A31G, 0; in that of G1U G15U, 0.102.
With G1U G15C the figure was 0.0726; with U2A U67G, 0.158; with U2A U67C, 0.0778.
With U2A A64G the figure was 0.0976; with U2C G29A, 0.0747.
In the case of G1U U8C, the self-cleavage was determined as 0.118.
With U2A G27U the figure was 0.124.
With U2A G57A the figure was 0.136; with U2A C37U, 0.23; with U2A U53A, 0.303.
With U2A U53C the figure was 0.292.
Turning to U2A G21U, the self-cleavage worked out at 0.271.
With G1U A31U the figure was 0.0996; with U2A U62C, 0.0796.
Take U2A U62A: the self-cleavage came out at 0.194.
With U2A G15A the figure was 0.216; with G1U U67C, 0.0702; with G1U U67G, 0.097.
In the case of U2A G19C it was 0.106; in that of U2A G19A, 0.216.
In the case of G1U U55C it was 0.217.
In the case of U2A C16U, the self-cleavage turned out to be 0.259.
As for U2A C16A, the self-cleavage was found to be 0.221.
In the case of U2A G69U it was 0.151.
With G1U C6A the figure was 0.138.
In the case of G1U C6G it was 0.228.
Consider G1U A30G, for which the self-cleavage was found to be 0.105.
With U2C A22U the figure was 0.296; with G1U C65A, 0.0897; with U2C A61G, 0.0293.
With U2C C3A, the self-cleavage turned out to be 0.114.
With U2A A43G the figure was 0.138; with G1U U5C, 0; with U2A C3G, 0.127.
In the case of G1U C46G it was 0.16.
With G1U C46U the figure was 0.0565; with U2C A23G, 0.116; with U2C A23U, 0.185.
As to G1U C37G, the self-cleavage stood at 0.0694.
In the case of G1U C37A it was 0.158.
With G1U C37U the figure was 0.0964.
In the case of G1U A26G it was 0.314; in that of G1U U62C, 0.172.
As for G1U U62G, the self-cleavage came out at 0.163.
With U2A A26U the figure was 0.253; with G1U C12U, 0.17.
In the case of G1U C12G it was 0.171; in that of U2C A36G, 0.212.
With U2C A45C the figure was 0.0982; with U2C A45G, 0.0514.
Consider U2A G17A, for which the self-cleavage came to 0.274.
With G1U C50A the figure was 0.189; with U2A A36C, 0.143; with G1U G29U, 0.154.
With G1U G29A the figure was 0.08; with G1U G29C, 0.109.
In the case of U2C G15U it was 0.117; in that of U2C G15A, 0.126; in that of U2A U33A, 0.077.
For the variant U2A G29A, the self-cleavage stood at 0.0918.
Regarding U2A G29C, the self-cleavage came out at 0.105.
With U2A G68U the figure was 0.133.
In the case of U2A G68A it was 0.0992.
In the case of G1U A59U it was 0.195; in that of G1U A59C, 0.183; in that of U2A U55A, 0.103.
Regarding U2C A11U, the self-cleavage is 0.197.
With U2A G54U the figure was 0.119; with G1U A41U, 0.0959.
In the case of G1U A41C, the self-cleavage stood at 0.0514.
In the case of U2A C4G it was 0.0724.
With U2A C65A the figure was 0.222; with G1U U63G, 0.0703; with G1U G68C, 0.0827.
In the case of G1U G68U it was 0.051.
On to G1U G68A, for which the self-cleavage is 0.124.
In the case of U2C C16A it was 0.0439.
With G1U C38G the figure was 0.0981.
Turning to G1U C38U, the self-cleavage was determined as 0.127.
As for U2A G25C, the self-cleavage amounted to 0.171.
In the case of G1U A28G it was 0.0771; in that of U2A A49U, 0.0799; in that of U2A A31G, 0.334.
With U2A A31U the figure was 0.163.
On to U2C C46G, for which the self-cleavage was determined as 0.0408.
With U2A A30G the figure was 0.442; with G1U C18U, 0.121.
In the case of U2C G17U it was 0.1.
As for U2C G32U, the self-cleavage worked out at 0.183.
Turning to U2A A11C, the self-cleavage was found to be 0.288.
For G1U A35U, the self-cleavage stood at 0.126.
With U2A A23U the figure was 0.167.
In the case of G1U A64G it was 0.0823; in that of U2A U60A, 0.175; in that of U2C A41U, 0.283.
On to U2A U63G, for which the self-cleavage stood at 0.0633.
With U2C C48U the figure was 0.0586; with U2C C48G, 0.108; with U2A C18G, 0.212.
For G1U A49G, the self-cleavage turned out to be 0.234.
With G1U A44G the figure was 0.0639; with G1U G56C, 0.229; with G1U A36U, 0.224.
With G1U U58C the figure was 0.0791; with G1U U2A, 0.11.
With G1U U60C the figure was 0; with G1U U60A, 0.195; with G1U G34C, 0.143.
With G1U G40U, the self-cleavage worked out at 0.111.
As for G1U G40A, the self-cleavage amounted to 0.123.
Consider U2A A45U, for which the self-cleavage was found to be 0.0686.
In the case of G1U A71G it was 0.115.
With G1U U53G the figure was 0.227; with U2A U52G, 0.203.
On to U2C A71U, for which the self-cleavage amounted to 0.2.
For the variant U2C A71G, the self-cleavage was found to be 0.125.
With G1U U14G the figure was 0.184; with U2C C37U, 0.113.
In the case of U2A U9G it was 0.179; in that of U2A U9C, 0.233; in that of U2A G51U, 0.228.
Regarding G1U C66G, the self-cleavage was 0.117.
Take G1U C66A: the self-cleavage turned out to be 0.242.
In the case of U2C G21A it was 0.0868; in that of U2A C38U, 0.14.
With G1U G32A the figure was 0.146.
In the case of G1U G32C it was 0.0843.
For the variant U2A, the self-cleavage came out at 0.259.
Take U2C: the self-cleavage was found to be 0.171.
In the case of G1U C4A it was 0.202; in that of U2A U70A, 0.331.
U2A U70G: the self-cleavage was determined as 0.224.
In the case of U2A C50A it was 0.219.
In the case of U2C A26G it was 0.121.
In the case of U2C A26C it was 0.0664; in that of U2C A24C, 0.227.
For U2C A24U, the self-cleavage worked out at 0.107.
In the case of U2C A28U it was 0.0802; in that of G1U C16G, 0.127.
In the case of G1U C16U it was 0.0937; in that of G1U C48U, 0.155.
In the case of U2C G13A it was 0.217.
For the variant U2A C46A, the self-cleavage was determined as 0.143.
In the case of G1U U52A it was 0.0595.
With G1U G27U the figure was 0.199; with U2A G32A, 0.0985.
With U2A A41U, the self-cleavage was 0.54.
With U2A A59U the figure was 0.141; with U2A A59C, 0.0974.
In the case of U2A A59G it was 0.156.

Values taken from the RNAGym collection of RNA variant scans (doi:10.7554/elife.80360).
